Experimental data from patent publication US20040086966A1 (EUROSCREEN S A, published 2004).
No end group written: not given here.

T1: human ChemerinR (human, UniProt Q99788 3-373)
T1 sequence: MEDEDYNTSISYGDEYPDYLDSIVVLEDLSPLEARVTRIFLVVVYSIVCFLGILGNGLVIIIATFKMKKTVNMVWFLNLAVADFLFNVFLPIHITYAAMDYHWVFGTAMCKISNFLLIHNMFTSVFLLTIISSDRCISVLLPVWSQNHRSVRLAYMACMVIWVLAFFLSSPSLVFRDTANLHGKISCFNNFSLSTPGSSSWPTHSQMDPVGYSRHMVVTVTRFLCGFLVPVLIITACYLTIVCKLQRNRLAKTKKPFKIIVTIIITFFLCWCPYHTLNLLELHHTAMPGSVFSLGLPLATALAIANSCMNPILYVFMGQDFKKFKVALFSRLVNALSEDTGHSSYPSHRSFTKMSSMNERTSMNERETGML

B1: YHSFFFPGQFAFS peptide (unlabeled) (peptide)
peptide: YHSFFFPGQFAFS
notes: also called unlabeled peptide; unlabel peptide
B2: human Prochemerin (recombinant, unprocessed) (ligand)
chain: ELTEAQRRGLQVALEEFHKHPPVQWAFQETSVESAVDTPFPAGIFVRLEFKLQQTSCRKRDWKKPECKVRPNGRKRKCLACIKLGSEDKVLGRLVHCPIETQVLREAEEHQETQCLRVQRAGEDPHSFYFPGQFAFSKALPRS

Molecular target: T1, human ChemerinR
Test: cell-based or functional assay

| Mean EC50, intracellular calcium release (aequorin assay) | Binder |
| --- | --- |
| 0.0122 µM | HSFYFPGQFAFS [Human Chemerin-12] |
| 2 µM | FPGQFAFS [Human Chemerin-8] |
| 130 µM | QRAGEDPHSFYFPGQF [Human [delta-Ala17Phe18Ser19]Chemerin-19] |
| 0.155 µM | YAPGQFAFS [Human [Ala-2]Chemerin-9] |
| 0.496 µM | AFPGQFAFS [Human [Ala-1]Chemerin-9] |
| 0.0082 µM | FYFPGQFAFS [Human Chemerin-10] |
| 0.097 µM | QRAGEDPHSFYFPGQFAF [Human [delta-Ser19]Chemerin-19] |
| 170 µM | QRAGEDPHSFYFPGQFAFSK [Human [Lys20]Chemerin-19] |
| 0.014 µM | PHSFYFPGQFAFS (not fully specified) [Human Chemerin-13] |
| 220 µM | PGQFAFS [Human Chemerin-7] |
| 0.0167 µM | QRAGEDPHSFYFPGQFAFS [Human Chemerin-19] |
| 38 µM | YFPGQFAAS [Human [Ala-8]Chemerin-9] |
| 160 µM | QRAGEDPHSFYFPGQFAFSKALPRS [Human prochemerin-25] |
| 5 µM | YFPGQAAFS [Human [Ala-6]Chemerin-9] |
| 220 µM | QRAGEDPHSFYFPGQFA [Human [delta-Phe18Ser19]Chemerin-19] |

Molecular target: T1, human ChemerinR
Test: competition binding on ChemerinR-expressing CHO-K1 cells; tracer (competed ligand) 125I-…
Description: (§1) ChemerinR expressing CHO-K1 cells were collected from plates with PBS supplemented with 5 mM EDTA, gently pelleted for 2 min at 1000×g, and resuspended in binding buffer (50 mM HEPES, pH 7.4, 1 mM CaCl₂, 5 mM MgCl₂, 0.5% BSA). […] Filters were counted in a […]-scintillation counter. Binding parameters were determined with the PRISM software (Graphpad Software) using nonlinear regression applied to a one-site competition model.

| IC50 (read off the curve) | Binder |
| --- | --- |
| ~20 nM | B1 |

Molecular target: T1, human ChemerinR
Test: competition binding on ChemerinR-expressing CHO-K1 cells, tracer 125I-…, one-site model, 3 experiments
Description: as §1

| Ki | pKi | Binder |
| --- | --- | --- |
| 12.1 nM | 7.95 | B1 |

Molecular target: T1, human ChemerinR
Test: cell-based or functional assay
Remark: another data set of the same source

| EC50, aequorin-based assay | EC50, biological activity on CHO-K1 cells expressing human ChemerinR (aequorin assay) | Binder |
| --- | --- | --- |
| 28 nM |  | B1 |
|  | 393 nM | B2 |
